Assay results reported in patent US20220017612A1 (TILOS THERAPEUTICS, published 2022).
Substitutions are numbered along the chain they refer to.

How the values were obtained:
[1] = molecular target: murine LAP-TGFβ1 overexpressed on cells (mouse, UniProt P04202 30-390); assay: cell-based or functional assay
[2] = molecular target: T1, human LAP-TGFβ1 overexpressed on cells (human, UniProt P01137 30-390); assay: cell-based or functional assay
[3] = molecular target: T2, fusion protein of a human IgG1 Fc domain and human LAP-TGFβ1 (human, UniProt P01137 30-390); assay: BLI, antibody on tip, 1:1 model
T2 construct: printed both as Fc-huB1 and LAP-TGFβ-Fc; also called Fc-huB1; Fc-human LAP
Description: (§1) Binding to human TGFβ1 of a subset of candidates was also tested by bio-layer interferometry (Octet). A streptavidin coated tip was equilibrated for 60 seconds in binding buffer (10 mM sodium phosphate, 150 mM sodium chloride, 1% bovine serum albumin, 0.05% sodium azide). The tip was then dipped in 10 μg/mL biotinylated antibody in binding buffer. After 15 seconds, the tip was washed in binding buffer for 60 seconds, and then dipped in 0-24 nM Fc-human LAP. Analyte association was measured for 5 minutes. The tip was transferred to binding buffer alone, and analyte dissociation was measured for 5 minutes. The association and dissociation data were fit to a 1:1 binding model.

[4] = molecular target: T2, fusion protein of a human IgG1 Fc …; assay: BLI, signal change on binding
Description: as §1

[5] = molecular target: T1, human LAP-TGFβ1 overexpressed on cells; assay: flow cytometry; black bar HT1080-huB1, grey bar HT1080
Description: First, the ability of 22F9H0L0, HILO, H2L0, H3L0, H4L0, H5L0, H0L1, H1L1, H2L1, H3L1, H4L1, H5L1, H0L2, H1L2, H2L2, H3L3, H4L2, and H5L2 to bind to HT1080 cells overexpressing human TGFβ1 was tested by flow cytometry. HT1080 cells over-expressing human LAP-TGFβ1 were placed in a round-bottom 96-well plate at density of 40,000 cells/well. The cells were washed with FACS buffer (25 mM HEPES, 2 mM EDTA, 2% fetal bovine serum in Hank's Balanced Salt Solution). 50 μL of 1:200 diluted TruStain Human FcX (BioLegend) was added to each well, followed by 50 μL of 100 ng/μL of humanized 22F9 construct. The antibody was allowed to bind for 20 minutes. The cells were washed twice with FACS buffer. The cells were labeled for 15 minutes with Alexa647-anti Human IgG (Jackson Immunoresearch), washed twice with FACS buffer, and analyzed by flow cytometry.

[6] = molecular target: T3, fusion protein of a human IgG1 Fc domain and mouse LAP-TGFβ1 (human; mouse, UniProt P04202 30-390); assay: BLI, 2:1 model, component 2
T3 construct: also called mouse LAP-TGFβ-Fc
Description: (§2) The 20E6_H0.2aL1_IgG1 antibody was biotinylated using EZ-Link SulfoNHS-LC-Biotin (ThermoFisher). A streptavidin-functionalized tip was equilibrated in binding buffer (10 mM sodium phosphate, 150 mM sodium chloride, 1% (w/v) bovine serum albumin, 0.05% (w/v) sodium azide, pH 7.4) and dipped in a 10 μg/mL solution of biotinylated anti-LAP in binding buffer for 30 seconds to load the tip with antibody. The antibody-loaded tip was then washed in binding buffer and placed in a solution containing 0-24 nM of a fusion protein having a human IgG1 Fc domain fused to either human LAP-TGFβ1, human LAP-TGFβ2 or human LAP-TGFβ3. The antigen was allowed to bind to antibody for 5 minutes (association phase), and then the tip was moved to binding buffer (dissociation phase). The association and dissociation phases were fit to a 2:1 heterogenous ligand binding model to determine the binding rate constants. As shown in FIG. 21A and Table 17, 20E6_H0.2aL1_IgG1 bound with sub-nanomolar affinity to human LAP-TGFβ1, but not to human LAP-TGFβ2 (FIG. 21B) or LAP-TGFβ3 (FIG. 21C).
(§3) The binding of 20E6_H0.2aL1_IgG1 antibody and 20E6_H0.2aL1_hIgG4mut antibody to LAP-TGFβ1 of various species was examined by bio-layer interferometry using the method described in Example 12, except that the antibody-loaded tip was placed in a solution containing 0-24 nM of a fusion protein having a human IgG1 Fc domain fused to either mouse, rat, cynomolgus monkey, or human LAP-TGFβ1.

[7] = molecular target: T2, fusion protein of a human IgG1 Fc …; assay: BLI, 2:1 model, component 2
Description: as §2, §3

[8] = molecular target: T4, fusion protein of a human IgG1 Fc domain and rat LAP-TGFβ1 (human; rat, UniProt P17246 30-390, limits assumed); assay: BLI, 2:1 model, component 2
T4 construct: also called rat LAP-TGFβ-Fc
Description: as §2, §3

[9] = molecular target: T5, fusion protein of a human IgG1 Fc domain and cynomolgus monkey LAP-TGFβ1 (human; cynomolgus monkey); assay: BLI, 2:1 model, component 2
T5 construct: also called cynomolgus monkey LAP-TGFβ-Fc
Description: as §2, §3

[10] = molecular target: T3, fusion protein of a human IgG1 Fc …; assay: BLI, 2:1 model, component 1
Description: as §2, §3

[11] = molecular target: T2, fusion protein of a human IgG1 Fc …; assay: BLI, 2:1 model, component 1
Description: as §2, §3

[12] = molecular target: T4, fusion protein of a human IgG1 Fc …; assay: BLI, 2:1 model, component 1
Description: as §2, §3

[13] = molecular target: T5, fusion protein of a human IgG1 Fc …; assay: BLI, 2:1 model, component 1
Description: as §2, §3

T3 sequence (P04202 30-390 limits assumed): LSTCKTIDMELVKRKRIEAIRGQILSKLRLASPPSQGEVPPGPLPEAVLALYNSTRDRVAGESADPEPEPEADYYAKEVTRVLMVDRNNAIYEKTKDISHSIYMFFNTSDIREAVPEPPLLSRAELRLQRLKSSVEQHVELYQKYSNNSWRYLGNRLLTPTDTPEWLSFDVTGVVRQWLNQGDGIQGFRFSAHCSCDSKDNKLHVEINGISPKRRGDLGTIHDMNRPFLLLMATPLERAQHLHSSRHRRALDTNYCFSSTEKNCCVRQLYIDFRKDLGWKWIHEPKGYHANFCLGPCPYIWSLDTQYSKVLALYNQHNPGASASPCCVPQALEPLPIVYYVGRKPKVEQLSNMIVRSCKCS
T4 sequence (P17246 30-390 limits assumed): as the sequence (P04202 30-390 limits assumed) above, with E93D, S99T, L131F, S134T, K202V counted along it
T1 sequence (P01137 30-390): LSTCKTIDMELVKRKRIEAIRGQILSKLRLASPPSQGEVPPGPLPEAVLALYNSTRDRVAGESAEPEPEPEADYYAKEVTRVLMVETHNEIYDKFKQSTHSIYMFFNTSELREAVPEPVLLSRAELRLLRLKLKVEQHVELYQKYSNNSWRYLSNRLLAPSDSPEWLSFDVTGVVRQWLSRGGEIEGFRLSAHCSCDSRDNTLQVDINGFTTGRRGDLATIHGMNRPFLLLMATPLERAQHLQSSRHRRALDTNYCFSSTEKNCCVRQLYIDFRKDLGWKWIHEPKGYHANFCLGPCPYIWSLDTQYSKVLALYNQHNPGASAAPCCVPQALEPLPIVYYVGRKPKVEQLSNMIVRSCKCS
T2 sequence (P01137 30-390 limits assumed): as the sequence (P01137 30-390) above
Chain of murine LAP-TGFβ1 overexpressed on cells (P04202 30-390): as the sequence (P04202 30-390 limits assumed) above

B1: 28G11_mIgG2a (antibody, V domains shown)
VH: EVKLVESGGGLVQPGGSLSLSCAASGFTFTDYYMSWVRQPPGKALEWLGFIRNKPNGYTTEYSASVKGRFTISRDNSQSILYLQMNVLRAEDSATYYCARYTGGGYFDYWGQGTTLTVSS
VL: DIQMTQTTSSLSASLGDRLTISCRASQDISNYLNWYQQKPDGTVKLLIYYTSRLHSGVPSRFSGSGSGTDYSLTISNLEQADIATYFCQQGDTLPWTFGGGTKLEIK
Question: How did the “IC50 of inhibition of TGFβ1 activation” value [1] turn out when B1 was run?
Answer: Its value is 0.8 µg/mL.

Question: What about the “IC50 of inhibition of TGFβ1 activation” value [2] of the same binder?
Answer: Its value is 1.6 µg/mL.

B2: 22F9_H5L0 (antibody, human IgG1, kappa)
heavy: not shown
light: DIQLTQSPSSLSASVGDRVTITCRASKSVSTSGYSYMHWYQQKPGKAPKLLIYLASNLESGVPSRFSGSGSGTDFTLTISSLQPEDFATYYCQHSRELPYTFGGGTKVEIKRTVAAPSVFIFPPSDEQLKSGTASVVCLLNNFYPREAKVQWKVDNALQSGNSQESVTEQDSKDSTYSLSSTLTLSKADYEKHKVYACEVTHQGLSSPVTKSFNRGEC
Question: For B2, which Kd [3] is on record?
Answer: Its Kd is 3.35 nM.

Question: And the koff [3]?
Answer: Its koff is 0.0017 s⁻¹.

Question: And the kon [3]?
Answer: Its kon is 510000 M⁻¹ s⁻¹.

Question: And the “Binding (nm)” value [4]?
Answer: Its value is 0.13 nm.

B3: 22F9_H3L1 (antibody, human IgG1, kappa, V domains shown)
VH: QVQLVQSGAEVKKPGASVKVSCKASGYTFTSYWMHWVRQAPGQGLEWIGMIHPNSGSTNYNEKFKSRVTLTVDKSSSTAYMELSSLRSEDTAVYYCAYYDYDGFFDVWGQGTLVTVSS
VL: DIQLTQSPSSLSASVGDRVTITCRASKSVSTSGYSYMHWYQQKPGKPPKLLIYLASNLESGVPSRFSGSGSGTHFTLTISSLQPEDFATYYCQHSRELPYTFGGGTKVEIKR
Question: Does B3 bind [5]?
Answer: Result: binds

B4: H0L0 (antibody, human IgG1, kappa, V domains shown)
VH: B3 VH with I48M, L70M, V72R, K74T, S76T, A79V, Y98R
VL: B3 VL with P47A, H74D
notes: also called 22F9_H0L0
Question: Does B4 bind [5]?
Answer: Result: no binding (tested: single dose, 50 µL of 100 ng/µL)

B5: H0L1 (antibody, human IgG1, kappa, V domains shown)
VH: B3 VH with I48M, L70M, V72R, K74T, S76T, A79V, Y98R
VL: B3 VL
notes: also called 22F9_H0L1
Question: Does B5 bind [5]?
Answer: Result: no binding (tested: single dose, 50 µL of 100 ng/µL)

B6: H0L2 (antibody, human IgG1, kappa, V domains shown)
VH: B3 VH with I48M, L70M, V72R, K74T, S76T, A79V, Y98R
VL: B3 VL with A13V, V19A, L82V, V108L
notes: also called 22F9_H0L2
Question: Does B6 bind [5]?
Answer: Result: no binding (tested: single dose, 50 µL of 100 ng/µL)

B7: H1L2 (antibody, human IgG1, kappa, V domains shown)
VH: B3 VH with L70M, K74T, S76T, A79V
VL: B3 VL with A13V, V19A, L82V, V108L
notes: also called 22F9_H1L2
Question: Does B7 bind [5]?
Answer: Result: no binding (tested: single dose, 50 µL of 100 ng/µL)

B8: 22F9_H4L0 (antibody, human IgG1, kappa)
heavy: not shown
light: B2 light
Question: How did the Kd [3] turn out when B8 was run?
Answer: The Kd was 1.63 nM.

Question: What about the koff [3] of the same binder?
Answer: Its koff is 0.00132 s⁻¹.

Question: And the kon [3]?
Answer: Its kon is 810000 M⁻¹ s⁻¹.

Question: And the “Binding (nm)” value [4]?
Answer: Its value is 0.057 nm.

B9: 22F9_H3L0 (antibody, human IgG1, kappa, V domains shown)
VH: B3 VH
VL: B3 VL with P47A, H74D
Question: With B9 as the binder, how does the Kd [3] read?
Answer: Its Kd is 2.75 nM.

Question: What about the koff [3] of the same binder?
Answer: Its koff is 0.00214 s⁻¹.

Question: And the kon [3]?
Answer: The kon was 778000 M⁻¹ s⁻¹.

Question: What about the “Binding (nm)” value [4] of the same binder?
Answer: The value was 0.023 nm.

B10: 22F9_H4L2 (antibody, human IgG1, kappa)
heavy: not shown
light: B2 light with A13V, V19A, A47P, D74H, L82V, V108L
Question: How did the Kd [3] turn out when B10 was run?
Answer: The Kd was 2.3 nM.

Question: And the koff [3]?
Answer: Its koff is 0.00137 s⁻¹.

Question: What about the kon [3] of the same binder?
Answer: The kon was 598000 M⁻¹ s⁻¹.

Question: And the “Binding (nm)” value [4]?
Answer: The value was 0.07 nm.

B11: 22F9_H5L1 (antibody, human IgG1, kappa)
heavy: not shown
light: B2 light with A47P, D74H
Question: B11 was tested. Which Kd [3] did it give?
Answer: Its Kd is 2.34 nM.

Question: What about the koff [3] of the same binder?
Answer: Its koff is 0.00122 s⁻¹.

Question: What about the kon [3] of the same binder?
Answer: Its kon is 519000 M⁻¹ s⁻¹.

Question: And the “Binding (nm)” value [4]?
Answer: Its value is 0.08 nm.

B12: 22F9_H5L2 (antibody, human IgG1, kappa)
heavy: not shown
light: B2 light with A13V, V19A, A47P, D74H, L82V, V108L
Question: B12 was tested. Which Kd [3] did it give?
Answer: The Kd was 3.91 nM.

Question: And the koff [3]?
Answer: The koff was 0.00246 s⁻¹.

Question: What about the kon [3] of the same binder?
Answer: Its kon is 629000 M⁻¹ s⁻¹.

Question: And the “Binding (nm)” value [4]?
Answer: The value was 0.06 nm.

B13: 20E6_H0.2aL1_hIgG4mut (antibody)
heavy: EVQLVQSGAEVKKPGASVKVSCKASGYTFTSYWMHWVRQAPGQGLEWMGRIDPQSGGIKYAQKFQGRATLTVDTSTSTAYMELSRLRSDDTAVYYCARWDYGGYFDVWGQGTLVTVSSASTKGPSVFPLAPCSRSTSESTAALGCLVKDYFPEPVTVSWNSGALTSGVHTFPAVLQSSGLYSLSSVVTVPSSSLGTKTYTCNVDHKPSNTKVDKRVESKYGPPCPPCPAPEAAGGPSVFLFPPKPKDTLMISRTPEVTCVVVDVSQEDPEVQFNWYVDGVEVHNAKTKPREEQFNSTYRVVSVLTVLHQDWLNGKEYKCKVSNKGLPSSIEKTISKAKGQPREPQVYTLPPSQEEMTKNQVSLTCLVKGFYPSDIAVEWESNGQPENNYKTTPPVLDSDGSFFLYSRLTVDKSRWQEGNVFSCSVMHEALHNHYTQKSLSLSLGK
light: DIQMTQSPSSLSASVGDRVTITCRASQDITNYLNWYQQKPGKAVKLLIYYTSRLHSGVPSRFSGSGSGTDYTLTISSLQPEDFATYFCQQGDTLPWTFGQGTKLEIKRTVAAPSVFIFPPSDEQLKSGTASVVCLLNNFYPREAKVQWKVDNALQSGNSQESVTEQDSKDSTYSLSSTLTLSKADYEKHKVYACEVTHQGLSSPVTKSFNRGEC
Question: For B13, which Kd [6] is on record?
Answer: The Kd was 1.31 nM.

Question: And the koff [6]?
Answer: Its koff is 0.0011 s⁻¹.

Question: And the kon [6]?
Answer: Its kon is 840000 M⁻¹ s⁻¹.

Question: What about the Kd [7] of the same binder?
Answer: Its Kd is 0.51 nM.

Question: And the koff [7]?
Answer: The koff was 0.00036 s⁻¹.

Question: And the kon [7]?
Answer: Its kon is 700000 M⁻¹ s⁻¹.

Question: And the Kd [8]?
Answer: The Kd was 0.51 nM.

Question: What about the koff [8] of the same binder?
Answer: The koff was 0.00087 s⁻¹.

Question: What about the kon [8] of the same binder?
Answer: The kon was 1.7e+06 M⁻¹ s⁻¹.

Question: And the Kd [9]?
Answer: Its Kd is 1.53 nM.

Question: And the koff [9]?
Answer: Its koff is 0.00143 s⁻¹.

Question: And the kon [9]?
Answer: The kon was 940000 M⁻¹ s⁻¹.

Question: And the Kd [10]?
Answer: Its Kd is 16.9 nM.

Question: And the koff [10]?
Answer: The koff was 0.0478 s⁻¹.

Question: What about the kon [10] of the same binder?
Answer: Its kon is 2.8e+06 M⁻¹ s⁻¹.

Question: And the Kd [11]?
Answer: The Kd was 10.7 nM.

Question: And the koff [11]?
Answer: Its koff is 0.0303 s⁻¹.

Question: What about the kon [11] of the same binder?
Answer: Its kon is 2.8e+06 M⁻¹ s⁻¹.

Question: What about the Kd [12] of the same binder?
Answer: The Kd was 11.1 nM.

Question: And the koff [12]?
Answer: The koff was 0.0406 s⁻¹.

Question: What about the kon [12] of the same binder?
Answer: The kon was 3.6e+06 M⁻¹ s⁻¹.

Question: What about the Kd [13] of the same binder?
Answer: The Kd was 26.1 nM.

Question: What about the koff [13] of the same binder?
Answer: Its koff is 0.0524 s⁻¹.

Question: And the kon [13]?
Answer: Its kon is 2e+06 M⁻¹ s⁻¹.
